In PMC10140031 (2023):

Biological target: human complement C3a (human, UniProt P01024 672-748)
Assay: SPR

Chain of human complement C3a (P01024 672-748): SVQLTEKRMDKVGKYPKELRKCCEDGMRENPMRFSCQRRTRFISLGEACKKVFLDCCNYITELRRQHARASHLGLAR

B1: His-ISG65_(18-363)-Avi, C-terminally biotinylated (domain or fragment)
chain: LLVIGSEDNRVPGDKKLTKEGAAALCKMKHLADKVAKERSQELKDRTQNFAGYIEFELYRIDYWLEKLNGPKGRKDGYAKLSDSDIEKVKEIFNKAKDGITKQLPEAKKAGEEAGKLHTEVKKAAENARGQDLDDDTAKSTGLYRVLNWYCITKEERHNATPNCDGIQFRKHYLSVNRSAIDCSSTSYEENYDWSANALQVALNSWEDVKPKKLESAGSDKNCNIGQSSESHPCTMTEEWQTPYKETVEKLRELEDAYQRGKKAHDAMLGYANTAYAVNTKVEQEKPLTEVIAAAKEAGKKGAKIIIPAAAPATPTNSTKNDDSAPTEHVDRGIATNETQVEVGID
modifications: biotin on the C-terminal Avi-tag (site-specific Avi-tag biotinylation)
B1 showed a Kd of 18 µM.
